Measured values: the supplement of paper PMC12042874
± gives the uncertainty stated by the source.

Assay: amyloid nucleation score (Sup35N fusion, yeast selection) (log enrichment); library NNK2; higher = more nucleation; inactive = no reads after selection
Summary of the method: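 Random libraries were run with three technical output replicates. In each, psi-negative yeast expressing Sup35N fused to peptides of 20 random codons were induced 24 hours with 100 μM copper sulfate and grown 7 days at 30°C on medium lacking adenine and uracil, and input and output plasmid inserts were Illumina-sequenced. The nucleation score is the DiMSum log enrichment of output over input reads, centred on the mode score of non-aggregating sequences, and sequences under 100 input reads were excluded.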

| Substance | amyloid nucleation score |
| --- | --- |
| SLFTYGVISDHMGNMVPWND | -0.352 ± 1.1 |
| SLKEESFESVMNVG | 3.87 ± 0.059 |
| SLKRKGLVHTPCIFRVRCLT | 0.554 ± 0.81 |
| SLLDWYKSRQSLMGAMLHNC | -1.12 ± 0.44 |
| SLLSPHPLD | 0.203 ± 0.63 |
| SLLYQQDGCNLVVFYQFLV | 2.52 ± 0.13 |
| SLMKKTAGLFNVYVPSIGSS | 0.378 ± 0.37 |
| SLNILDCFTCGYMTSDISVA | -0.674 ± 0.32 |
| SLPRWTVCVCVQADGYWMWV | 7.12 ± 0.084 |
| SLQVDRNWGGS | 0.105 ± 0.55 |
| SLSFCVLEVSTCGCMSGYVG | 10.24 ± 0.05 |
| SLSGVV | inactive |
| SLSSGHETVR | 3.69 ± 0.15 |
| SLSVAWKWGGRSDN | 6.213 ± 0.06 |
| SLVLLNRSANWIDLLNKQQD | 3.62 ± 0.12 |
| SLWLSEVVCMDTVHQEIIMA | -0.163 ± 0.42 |
| SLYLRSRSRISFMGVGQKEL | 3.28 ± 0.11 |
| SMFIVHSCSTWLTNNGLNHM | 3.19 ± 0.16 |
| SMGLSC | inactive |
| SMGMLP | -0.641 ± 1.1 |
| SMGSPETC | -0.47 ± 1.1 |
| SMGYYDLFELYPNRHGYYGF | inactive |
| SMLEDRYHSALTENRRDWKQ | 0.564 ± 0.28 |
| SMLGKRIFYRCSRLMHNF | -0.175 ± 0.27 |

| Substance | amyloid nucleation score |
| --- | --- |
| SMNSLSIVYLDYASGAWMDL | -0.127 ± 0.49 |
| SMNVRTKLDWSTTRVDSGLR | 0.662 ± 0.21 |
| SMQCPLAAQTDM | -0.301 ± 0.45 |
| SMQFFFRS | 6.51 ± 0.072 |
| SMQFLCYKKLC | -0.565 ± 1.1 |
| SMQKG | inactive |
| SMRDEVYIRFFMNRILSVRS | -0.803 ± 1 |
| SMSKYAISYKLVVRKKYRSG | 1.83 ± 0.11 |
| SMTVKDSGFMSIFGFSTVRL | -0.854 ± 0.48 |
| SMWWY | -0.505 ± 1.1 |
| SMYLCDK | -0.621 ± 0.48 |
| SMYSLTVVNLRVRFLVVWGW | 0.615 ± 0.5 |
| SNAVLWNTGIFIKKYC | -1.38 ± 0.64 |
| SNEHKYFQNIATNVLV | -0.371 ± 0.64 |
| SNEPIGTASLHDYVGPRVST | -0.332 ± 0.44 |
| SNFLVYS | -0.636 ± 0.61 |
| SNHVKCGWICKFSLRIQSVY | 0.129 ± 0.65 |
| SNSGINHIRCCLYPLFYLIM | 2.35 ± 0.13 |
| SNSLQFYDLKSCDWGVWRCE | 4.768 ± 0.038 |
| SNSYGGDTQRY | -0.517 ± 0.33 |
| SNVLFLVLHRGRVKAVSRNE | -0.783 ± 1 |
| SNVLTVIVCYTKAWINKSFM | inactive |
| SNVWAQ | 0.571 ± 0.57 |
| SNWFLWHTSTRFMIKENIMY | 0.516 ± 0.74 |

| Substance | amyloid nucleation score |
| --- | --- |
| SPCLVLL | 0.2 ± 0.28 |
| SPCMCGYITINSLRPLLTFS | 5.797 ± 0.03 |
| SPFRTDHVF | -0.311 ± 0.33 |
| SPFTTSRDFMHRTPLLCDTC | 1.32 ± 0.33 |
| SPGIARDLANRILVTIRWVS | 1.25 ± 0.32 |
| SPGYTMKGFRWWLLSILGAR | inactive |
| SPRLAGVWVH | -0.669 ± 0.63 |
| SPSSQSKVISCLRVS | 0.611 ± 0.81 |
| SPVVADQPWCSI | 0.321 ± 0.64 |
| SPWGPLLAFTSKTNPIQWMT | -0.196 ± 0.46 |
| SQALCDGALYTHFAISSIDR | inactive |
| SQFAVRKEGTDSEEFLKSVV | -0.197 ± 0.48 |
| SQHGVKNLSSRFESLIA | -0.197 ± 0.79 |
| SQHSVARIANGLLTSGTMVL | 0.875 ± 0.36 |
| SQIRFWSRPRDCFGFLMRYV | -0.852 ± 1 |
| SQLVMHYKQVC | 1.82 ± 0.14 |
| SQSKNDQ | 0.257 ± 0.34 |
| SRAGECSSWGHIYGLCVDLR | -0.897 ± 0.55 |
| SRAKNLHSFKSNMCDAFSYN | inactive |
| SRFLFCVPHVDCWLLTWNLS | 6.68 ± 0.073 |
| SRFLLKDKSNTSGVMQLGMW | -0.374 ± 0.41 |
| SRFYILRL | 2.25 ± 0.098 |
| SRGWTRMRSYVVSSDFILLK | 0.178 ± 0.48 |
